Experimental findings from US20260069690A1 are described below.

The assay concerns the target S100A11 Q22R (mutant 25mer, peptide 60 / P60; residues not given) peptide on HLA-DR (human). The experiment in a line: MSGV1 TCR-transduced healthy-donor peripheral blood T cells with B cells pulsed with the Q22R peptide. Secretion was inhibited by anti-HLA-DR/-DP/-DQ but not by anti-HLA-ABC. TNFa and Granzyme B were also released. The TIL clone released IFNg, TNFa and Granzyme B, which anti-HLA-DR blocked but anti-HLA-DP and anti-HLA-DQ did not.; full-length, on cells. Conditions: chains Valpha:Vbeta.

B1: S100A11^Q22R-specific TCR (protein)
chain 1: SQKIEQNSEALNIQEGKTATLTCNYTNYSPAYLQWYRQDPGRGPVFLLLIRENEKEKRKERLKVTFDTTLKQSLFHITASQPADSATYLCALDFTGGGNKLTFGTGTQLKVEL
chain 2: NAGVMQNPRHLVRRRGQEARLRCSPMKGHSHVYWYRQLPEEGLKFMVYLQKENIIDESGMPKERFSAEFPKEGPSILRIQQVVRGDSAAYFCASSPSTGGIGDTQYFGPGTRLTVL
Turning to B1, the IFNg released is over 15000 pg/mL.
